In US20230382979A1 (ADAPTIVE BIOTECHNOLOGIES, published 2023):
Read-outs that look alike come from different tables or passages of the source.

Columns and labels:
[1] = biological target: T1, SARS-CoV-2 nucleocapsid (N) protein (SARS-CoV-2, UniProt P0DTC9 1-419); experiment: ELISA, antibody at 0.1 ug/mL
[2] = biological target: T2, S2 subunit of the SARS-CoV-2 spike protein, WA01/2020 strain (SARS-CoV-2, WA01/2020 strain, UniProt P0DTC2 686-1213); experiment: ELISA, antibody at 0.1 ug/mL
[3] = biological target: SARS-CoV-2 spike protein, WA1/2020, borne on lentiviral pseudovirus (SARS-CoV-2, WA01/2020 strain, UniProt P0DTC2 14-1273); experiment: cell-based or functional assay
[4] = biological target: T1, SARS-CoV-2 nucleocapsid (N) protein; experiment: ELISA, antibody at 0.1 ug/mL; remark: listed apart in the source
[5] = biological target: T2, S2 subunit of the SARS-CoV-2 spike …; experiment: ELISA, antibody at 0.1 ug/mL; remark: listed apart in the source
[6] = biological target: T2, S2 subunit of the SARS-CoV-2 spike …; experiment: dose-response ELISA; antigen taken from the column 'Structural data'
[7] = biological target: T1, SARS-CoV-2 nucleocapsid (N) protein; experiment: ELISA screening, antibody concentration not given
[8] = biological target: S1 subunit of the SARS-CoV-2 spike protein, WA01/2020 strain (SARS-CoV-2, WA01/2020 strain, UniProt P0DTC2 16-685); experiment: ELISA screening, antibody concentration not given
[9] = biological target: SARS-CoV (2003) spike protein borne on lentiviral pseudovirus (SARS-CoV (2003), UniProt P59594 14-1255); experiment: cell-based or functional assay

| Binder | binding result [1] | binding result [2] | Pseudo Neut, WA1/2020 IC50 (pM) [3] | binding result [4] | binding result [5] | EC50 [6] | binding result [7] | binding result [8] | Pseudo Neut, SARS-CoV 2003 IC50 [9] |
| --- | --- | --- | --- | --- | --- | --- | --- | --- | --- |
| antibody 3995 (antibody, V domains shown) VH: EVQLVQSGAEVKKPGSSVKVSCKASGGTFSMHTIRWVRQAPGQGLEWMGRIIPMLGIVNYAQKFQGRVTISADKSTSTAYMELSSLTSEDTAMYYCAKGSHDVFDIWGQGTMVTVSS VL: not shown | no binding (tested: 0.1 ug/mL) | no binding (tested: 0.1 ug/mL) | 3120 pM |  |  |  |  |  |  |
| antibody 2025 (antibody, V domains shown) VH: QVQLVQSGAEVKKPGASVKVSCKVSGYTLIELSMHWVRQAPGKGLEWMGGFDPEDVETIYAQKFQGRVTMTEDTSTDTAYMELSSLRSEDTAVYYCATAYAVQWRGMIGYWGQGTLVTVSS VL: QSALTQPASVSGSPGQSITISCTGTSSDVGSYNLVSWYQQHPGKAPKLMIYEVSKRPSGVSNRFSGSKSGNTASLTISGLQAEDEADYYCSSYAGSSTFSYVFGTGTKVTVL |  |  |  | no binding (tested: 0.1 ug/mL) | no binding (tested: 0.1 ug/mL) |  |  |  |  |
| antibody 2564 (antibody, V domains shown) VH: QVQLVQSGAEVKKPGSSVRVSCKASGGTFISYTFNWVRQAPGQGLEWMGRIIPIFGIVNYAQKFQGRVTIAADKSTSTAYMELSSLRSEDTAMYYCATATVDYDSGEEQSSFDPWGQGTLVTVSS VL: EIVLTQSPGTLSLSPGERATLSCRASQSVSSSYLAWYQQKAGQTPRLLIYAASSRATGVPDRFSGSGSGTDFTLTISRLEAEDFAVYYCQQSWTFGQGTKVEIK | no binding (tested: 0.1 ug/mL) | no binding (tested: 0.1 ug/mL) | 160 pM |  |  |  |  |  |  |
| antibody 2794 (antibody, V domains shown) VH: QVQLVQSGAEVKKPGSSLKVSCKASGGTFNNFAISWVRQAPGQGPEWMGRINPILSAAKYAQKFQGRLTITADKSTTTAYMELSSLRSEDTAVYYCAPTGTGESWWFDPWGQGTLVTVSS VL: QSVLTQPPSASGTPGQRVTISCSGSSSNIGTNYVYWYQQLPGTAPKVLIYGNNQRPSGVPDRFSGSKSGSSASLAISGLRSEDEADYYCAAWDDSLSGPVFGGGTKLTVL | no binding (tested: 0.1 ug/mL) | no binding (tested: 0.1 ug/mL) | 232 pM |  |  |  |  |  |  |
| antibody 937 (antibody, V domains shown) VH: EVQLVESGGGLVQPGRSLRLSCAASGFTFDDYAMHWVRQAPGKGLEWVSGISWNSGSIGYADSVKGRFTISRDNAKNSLYLQMNSLKPEDTALYYCAKSTTSCYNGSQCPTKRPKPLESWGQGTLVIVSA VL: DIQMTQSPSTLSAFVGDRVTITCRASQSINNWLAWYQQKPGEVPKLLIYKASSLENGVPSRFSGSGFGTEFTLTISSLQPDDFAIYYCQQYYSHSHTFGQGTKLEIK |  |  |  | no binding (tested: 0.1 ug/mL) | no binding (tested: 0.1 ug/mL) |  |  |  |  |
| antibody 3091 (antibody, V domains shown) VH: QMQLVQSGPEVKKPGTSVKVSCKASGFTFSSSAVQWVRQARGQGLEWIGWIVVGSGNANYAQKLQERVSITRDMSTSTAYMELSSLRPEDTAVYYCAAPHCSRTICHDGFDMWGQGTMVTVSS VL: EIVLTQSPGTLSLSPGERATLSCRASQSVRSSYLAWYQQKPGQAPRLLMFVASSRATGIPDRFSGSGSGTDFTLTISRLEPEDFAVYYCQQYDTSPWTFGQGTKVEIK | no binding (tested: 0.1 ug/mL) | no binding (tested: 0.1 ug/mL) | 59 pM |  |  |  |  |  |  |
| antibody 1963 (antibody, V domains shown) VH: QVQLVQSGAEVKKPGASVKVSCKASGYTFTSNYIHWLRQAPGQGLEWMGIIKPSGTSTISAQKFRGRVAMTRDTSTSTVYMELSSLRFEDTAIYYCARDAKRALETWGQGTMVTVSS VL: QSVLTQPPSVSAAPGQKVTISCSGSSSNIGNNYVSWYQQLPGTAPKLLIYDNNKRPSGIPDRFSGSRSGTSATLGITGLQTGDEADYYCGTWDSSLSAWVFGGGTKLTVL |  |  |  |  |  | 0.041 nM | no binding (tested: not printed) | no binding (tested: not printed) | 69 nM |
| antibody 1856 (antibody, V domains shown) VH: EVRLVESGGGLVKPGGSLRLSCAASGFSFSLYTMNWVRQAPGKGLEWVSYISSSSSYRYYADSVKGRFSVSRDNAKNTLYLEMNGLRAEDTAVYYCARDGYCPRGVCTYYGMDVWGQGTTVTVSA VL: EIVMTQSPATLSVSPGERATLSCRASQTIGIRLAWYQQKPGQAPRLLIYDATIRATGIPARFSGSGSGTDFTLTISGLQSEDFAVYYCQRYNNWPPVYTFGQGTKLEMK |  |  |  |  |  |  | no binding (tested: not printed) | no binding (tested: not printed) | > 111 nM |
| antibody 1867 (antibody, V domains shown) VH: EVQLVESGGGLVKPGGSLRLSCAASGFSFSTYTMNWVRQAPGKGLEWVSYISSSSSYRYYADSVRGRFSVSRDNAKNSLYLQMNGLRVEDTAVYYCARDGYCPNGVCTYYGMDVWGQGTTVTVSS VL: not shown |  |  |  |  |  | 1.09 nM | no binding (tested: not printed) | no binding (tested: not printed) | 135 nM |
| antibody 1888 (antibody, V domains shown) VH: EVQLVESGGGLVKPGGSLRLSCAASGFTFSSYSMNWVRQAPGKGLEWVSYISSSSSYKYYADSVKGRFSVSRDNAKNSLYLQLNGLRVEDTAVYYCARDGYCPKGVCTYYGMDVWGQGTTVTVSA VL: EIVMTQSPATLSVSPGERATLSCRASQSVRSRLAWFQQKPGQPPRLLIYDASIRATGIPDRFSGSGSGTEFTLIISGLQSEDFAVYYCQQYDNWPPAYTFGQGTKLEIK |  |  | > 111 pM |  |  |  | no binding (tested: not printed) | no binding (tested: not printed) | > 111 nM |
| antibody 4042 (antibody, V domains shown) VH: QITLKESGPTLVKPTQTLTLTCTFSGFSLSSGGVGVGWIRQPPGKALEWLALIYWDDDKRYRPSLKSRLTITRDTSTNQVVLTMTNMDPVDTATYFCARHQIATVFDHWGQGTLVTVSS VL: QSALTQPASVSGSPGQSITISCTGTSSDVGGYNYVSWYQQHPGKAPKLMIYEVSNRPSGVSSRFSGSKSGNTASLTISGLQAEDEADYYCSSYTRSSPLVAFGGGTKVTVL | no binding (tested: 0.1 ug/mL) | no binding (tested: 0.1 ug/mL) | 209 pM |  |  |  |  |  |  |
| antibody 941 (antibody, V domains shown) VH: QVQLVQSGAEVKKPGSSVKVSCKASGGTFSNSAINWVRQAPGQGLEWMGGIIPLFGAADYAQKFQARVTITADKSTTTSYMELSSLRSEDTAVYYCARDTLEHDDVWGNFRLSLPLSFWGQGTLVTVSS VL: not shown | no binding (tested: 0.1 ug/mL) | no binding (tested: 0.1 ug/mL) | 610 pM |  |  |  |  |  |  |
| antibody 1969 (antibody, V domains shown) VH: QVQLVQSGAEVKKPGASVKVSCKASGYSFTDYYIHWVRQAPGQGLEWMGIIKPSAGATVYAQKFRGRVSMTSDTSTGTVYMELSGLKSEDTAVYYCARDYNRSFDFWGQGTLVTVSS VL: QSVLTQPPSVSAAPGQTVTISCAGSTSNIGKNYVSWYQHLPGTAPKLLIYDNIKRPSGIPDRFSGSTSGTSATLGITELQTGDEADYYCGTWDSSLSAYVFGTGTKVTVL |  |  |  |  |  | 0.035 nM | no binding (tested: not printed) | no binding (tested: not printed) | 97 nM |
